Reference: patent US20090022728A1 (RINAT NEUROSCIENCE, published 2009)
Where a chain is given by its changes, count along the chain named.

B1: 9TL variant M15 Fab (Fab, V domains shown)
VH: QVQLVQSGAEVKKPGASVKVSCKASGYYTEAYYIHWVRQAPGQGLEWMGRIDPATGNTKYAPRLQDRVTMTRDTSTSTVYMELSSLRSEDTAVYYCASLYSLPVYWGQGTTVTVSS
VL: DVVMTQSPLSLPVTLGQPASISCKSSQSLLYSDAKTYLNWFQQRPGQSPRRLIYQISRLDPGVPDRFSGSGSGTDFTLKISRVEAEDVGVYYCLQGTHPPVLFGQGTRLEIKR
notes: Fab; human IgG2 CH1 and kappa CL
B2: 9TL variant M31 Fab (Fab, V domains shown)
VH: B1 VH with L99V
VL: B1 VL with P99Y
notes: as for B1
B3: 9TL variant M23 Fab (Fab, V domains shown)
VH: B1 VH
VL: B1 VL with P99Y, V101K
notes: as for B1
B4: 9TL variant M43 Fab (Fab, V domains shown)
VH: B1 VH with V104I
VL: B1 VL with P99Y
notes: as for B1
B5: 9TL variant M37 Fab (Fab, V domains shown)
VH: B1 VH with L102A
VL: B1 VL with P99Y
notes: as for B1
B6: 9TL variant M32 Fab (Fab, V domains shown)
VH: B1 VH with L99I
VL: B1 VL with P99Y
notes: as for B1
B7: 9TL variant M22 Fab (Fab, V domains shown)
VH: B1 VH
VL: B1 VL with P99Y, V101L
notes: as for B1
B8: 9TL variant M42 Fab (Fab, V domains shown)
VH: B1 VH with L102E
VL: B1 VL with P99Y
notes: as for B1
B9: 9TL variant M26 Fab (Fab, V domains shown)
VH: B1 VH
VL: B1 VL with P99Y, V101A
notes: as for B1
B10: 9TL variant M40 Fab (Fab, V domains shown)
VH: B1 VH with L102T
VL: B1 VL with P99Y
notes: as for B1
B11: 9TL variant M24 Fab (Fab, V domains shown)
VH: B1 VH
VL: B1 VL with P99Y, V101H
notes: as for B1
B12: 9TL variant M27 Fab (Fab, V domains shown)
VH: B1 VH
VL: B1 VL with P99Y, V101E
notes: as for B1
B13: 9TL variant M20 Fab (Fab, V domains shown)
VH: B1 VH
VL: B1 VL with P99S
notes: as for B1
B14: 9TL variant M21 Fab (Fab, V domains shown)
VH: B1 VH
VL: B1 VL with P99E
notes: as for B1
B15: 9TL variant M17 Fab (Fab, V domains shown)
VH: B1 VH
VL: B1 VL with P99W
notes: as for B1
B16: 9TL variant M39 Fab (Fab, V domains shown)
VH: B1 VH with L102S
VL: B1 VL with P99Y
notes: as for B1
B17: 9TL variant M30 Fab (Fab, V domains shown)
VH: B1 VH
VL: B1 VL with P99Y, L102V
notes: as for B1
B18: 9TL variant M46 Fab (Fab, V domains shown)
VH: B1 VH with V104C
VL: B1 VL with P99Y
notes: as for B1
B19: 9TL variant M16 Fab (Fab, V domains shown)
VH: B1 VH
VL: B1 VL with P99A
notes: as for B1
B20: 9TL variant M41 Fab (Fab, V domains shown)
VH: B1 VH with L102Q
VL: B1 VL with P99Y
notes: as for B1
B21: 9TL variant M18 Fab (Fab, V domains shown)
VH: B1 VH
VL: B1 VL with P99Q
notes: as for B1
B22: 9TL variant M19 Fab (Fab, V domains shown)
VH: B1 VH
VL: B1 VL with P99M
notes: as for B1
B23: 9TL variant M28 Fab (Fab, V domains shown)
VH: B1 VH
VL: B1 VL with P99Y, V101M
notes: as for B1
B24: 9TL variant M29 Fab (Fab, V domains shown)
VH: B1 VH
VL: B1 VL with P99Y, L102S
notes: as for B1
B25: 9TL variant M38 Fab (Fab, V domains shown)
VH: B1 VH with L102V
VL: B1 VL with P99Y
notes: as for B1
B26: 9TL variant M36 Fab (Fab, V domains shown)
VH: B1 VH with L102R
VL: B1 VL with P99Y
notes: as for B1
B27: 9TL variant M25 Fab (Fab, V domains shown)
VH: B1 VH
VL: B1 VL with P99Y, V101T
notes: as for B1
B28: 9TL variant M35 Fab (Fab, V domains shown)
VH: B1 VH with S101G
VL: B1 VL with P99Y
notes: as for B1

Columns and labels:
[1] = biological target: T1, biotinylated Aβ1-40 peptide (biotinylated (N-biotinylated in Example 7)); assay: SPR, Fab over Aβ1-40 on SA chip
T1 construct: captured on streptavidin (SA) chip; also called Biotinylated Aβ peptide 1-40; Aβ1-40 on SA chip
Protocol: (§1) Affinities of 9TL Fab fragment and its variants Fab fragments were determined by Surface Plasmon Resonance (SPR) system (BIAcore 3000™, BIAcore, Inc., Piscaway, N.J.). SA chips (streptavidin) were used according to the supplier's instructions. Biotinylated Aβ peptide 1-40 was diluted into HBS-EP (10 mM HEPES pH 7.4, 150 mM NaCl, 3 mM EDTA, 0.005% P20) and injected over the chip at a concentration of 0.005 mg/mL. Using variable flow time across the individual chip channels, two ranges of antigen density were achieved: 10-200 response units (RU) for detailed kinetic studies and 500-600 RU for concentration studies and screening. […] HBS-EP buffer was used as running buffer for all the BIAcore assays. […] The concentrations of the Fab proteins were determined by ELISA and/or SDS-PAGE electrophoresis using a standard Fab of known concentration (determined by amino acid analysis). Kinetic association rates (kₒₙ) and dissociation rates (koff) were obtained simultaneously by fitting the data to a 1:1 Langmuir binding model (Karlsson, R. Roos, H. Fagerstam, L. Petersson, B. (1994). Methods Enzymology 6. 99-110) using the BIAevaluation program. Equilibrium dissociation constant (KD) values were calculated as koff/kₒₙ.
(§2) All amino acid substitutions of the variants shown in Table 3 are described relative to the sequence of 9TL. KD and other kinetic parameters were determined by BIAcore analysis described above with Aβ₁₋₄₀ immobilized on SA chip.

[2] = biological target: T1, biotinylated Aβ1-40 peptide; assay: SPR, Fab over Aβ1-40 on SA chip; KD=koff/kon
Protocol: as §1, §2

[3] = biological target: T1, biotinylated Aβ1-40 peptide; assay: SPR, Fab over Aβ1-40 on SA chip; kon may be assumed = 9TL (footnote 2)
Protocol: as §1, §2

T1 sequence (peptide, as listed by the source): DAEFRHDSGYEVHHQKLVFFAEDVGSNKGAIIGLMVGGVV

Row | Binder | koff [1] [s⁻¹] | Kd [2] [nM] | kon [3] [M⁻¹ s⁻¹]
1 | B1 | 0.00067 | 2.11 | 318000
2 | B2 | 0.01 | 31.4 | 318000
3 | B3 | 0.005 | 15.7 | 318000
4 | B4 | 0.0003 | 0.94 | 318000
5 | B5 | 0.00092 | 2.89 | 318000
6 | B6 | 0.02 | 62.9 | 318000
7 | B7 | 0.004 | 12.6 | 318000
8 | B8 | 0.015 | 47.2 | 318000
9 | B9 | 0.009 | 28.3 | 318000
10 | B10 | 0.0045 | 14.2 | 318000
11 | B11 | 0.006 | 18.9 | 318000
12 | B12 | 0.012 | 37.7 | 318000
13 | B13 | 0.002 | 6.29 | 318000
14 | B14 | 0.005 | 15.7 | 318000
15 | B15 | 0.001 | 3.14 | 318000
16 | B16 | 0.0023 | 7.23 | 318000
17 | B17 | 0.00068 | 2.14 | 318000
18 | B18 | 0.02 | 62.9 | 318000
19 | B19 | 0.0007 | 2.2 | 318000
20 | B20 | 0.01 | 31.4 | 318000
21 | B21 | 0.0015 | 4.72 | 318000
22 | B22 | 0.0017 | 5.35 | 318000
23 | B23 | 0.014 | 44 | 318000
24 | B24 | 0.00076 | 2.39 | 318000
25 | B25 | 0.0015 | 4.72 | 318000
26 | B26 | 0.0009 | 2.83 | 318000
27 | B27 | 0.008 | 25.2 | 318000
28 | B28 | 0.009 | 28.3 | 318000
